From article PMC3823998, “Structural and Functional Characterization of the Redβ Recombinase from Bacteriophage λ” (PLoS ONE, 2013)
Changes are numbered by the printed parent chain.

Tests used:
Assay in all cases: EMSA; glutaraldehyde-fixed; ssDNA EMSA: 10 nM DNA, 50 mM potassium phosphate pH 6.0, 5 mM EDTA, 5% glycerol, 0.1 mg/ml BSA, 37°C, 40 min, then 0.1% glutaraldehyde; second-strand EMSA: 5 nM each strand, 20 mM Tris-HCl pH 7.5, 5 mM MgCl2, 1 mM DTT, 0.1 mg/ml BSA, 37°C
Conditions in all cases: protein: recombinant; tags: His6 removed; N-terminal GSH left; label: 5' Cy3
Redβ V77A = target: T1, Redβ V77A (Bacteriophage λ (Enterobacteria phage λ), UniProt P03698 1-261, V77A)
T1 sequence: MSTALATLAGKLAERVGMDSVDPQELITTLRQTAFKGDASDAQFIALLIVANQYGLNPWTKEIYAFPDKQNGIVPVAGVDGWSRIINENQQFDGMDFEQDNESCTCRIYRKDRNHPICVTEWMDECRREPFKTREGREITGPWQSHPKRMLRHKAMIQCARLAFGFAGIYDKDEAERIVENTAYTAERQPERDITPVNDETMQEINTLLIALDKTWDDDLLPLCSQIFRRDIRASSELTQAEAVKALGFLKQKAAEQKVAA

Redβ G78A = target: T2, Redβ G78A (Bacteriophage λ (Enterobacteria phage λ), UniProt P03698 1-261, G78A)
T2 sequence: T1 sequence with A77V, G78A

Redβ V79A = target: T3, Redβ V79A (Bacteriophage λ (Enterobacteria phage λ), UniProt P03698 1-261, V79A)
T3 sequence: T1 sequence with A77V, V79A

Redβ Y64A = target: T4, Redβ Y64A (Bacteriophage λ (Enterobacteria phage λ), UniProt P03698 1-261, Y64A)
T4 sequence: T1 sequence with Y64A, A77V

Redβ K132A = target: T5, Redβ K132A (Bacteriophage λ (Enterobacteria phage λ), UniProt P03698 1-261, K132A)
T5 sequence: T1 sequence with A77V, K132A

Redβ K69A = target: T6, Redβ K69A (Bacteriophage λ (Enterobacteria phage λ), UniProt P03698 1-261, K69A)
T6 sequence: T1 sequence with K69A, A77V

## TGCGGATGGCTTAGAGCTTAATTGCTGAATCTGGTGCTGTAGCTCAACAT (ssDNA) [50-minus ssDNA]
Redβ V77A
  binding signal: 11 % of WT binding at 3 µM protein
Redβ G78A
  binding signal: 33 % of WT binding at 3 µM protein
Redβ V79A
  binding signal: 21 % of WT binding at 3 µM protein
Redβ Y64A
  binding signal: 98 % of WT binding at 3 µM protein
Redβ K132A
  binding signal: 82 % of WT binding at 3 µM protein
Redβ K69A
  binding signal: 94 % of WT binding at 3 µM protein
